The text below walks through data of patent US20250313612A1 (Adimab, published 2025).

Bounds are passed on as bounds.

B1: ADI-14539 (antibody, V domains shown)
VH: QVQLVESGGGVVQPGRSLRLSCAASGFAFRVYDIHWVRQAPGKGLEWVAVAWSDGRDEFYADSVKGRITISRDNSKNTVYLQMSSLRVADTAVYYCARDSGTLTGLPHDAFDVWGQGTTVTVSS
VL: DIQLTQSPSTLSASVGDRVTITCRASQSITTRLAWYQQKLGKAPKLLVYKASTLEIGVPSRFSGRGSGTEFTLTISSLQPDDFATYYCHHYNSYSWTFGQGTKVDIK
notes: IgG; also called Antibody Number 99
B2: ADI-14559 (antibody, V domains shown)
VH: EVQLLESGGGLVKPGGSLRLSCAASGFIFTNAWMSWVRQAPGKGLEWVGRIKRKTETGTTDYAPPVKGRFTISRDDSRSTLYLQMNSLKTEDTAVYYCTTGPPYQYYDSTGYSVVDYWGQGTLVTVSS
VL: SYELTQPPSASGTPGQRVTISCSGSSSNIGSNIGINYVYWYQQLPGTAPKLLIYSTNQRPSGVPDRFSGSQSGTSASLAISGLRSEDEADYYCAAWDDSLSGPVFGGGTKLTVL
notes: IgG; also called Antibody Number 119
B3: ADI-14554 (antibody, V domains shown)
VH: QVQLVQSGGGLVKPGGSLRLSCAASGFAFSNAWMSWVRQAPGKGLEWLGRIKSETDGGTTDYAAPVKGRFSISRDDSRNTLYLQMNSLESEDTAVYYCTTGPPYKYFDSTGYSVVDYWGQGTLVTVSS
VL: SYELTQPPSASGTPGQRVTISCSGSSSNIGSNYVYWYQQLPGTAPRLLIYSTNQRPSGVPDRFSGSQSGTSASLAISGLRSDDEADYYCAAWDDRMSGPVFGGGTKLTVL
notes: IgG
B4: ADI-14553 (antibody, V domains shown)
VH: QVQLVQSGTEVKKPGSSVNVSCKAVGGKFTSYNINWVRQAPGQGLEWMGRIIPTLGITYFAQKFQGRLTINADRSTSTAYMDLSSLRSDDTAVYYCARSNPVARDFWSGYSDDSSYAMDVWGQGTTVTVSS
VL: ETTLTQSPGTLSLSPGDRVSLSCRASQTVDKNYVAWYQQKPGQAPRLLIYGASKRAADIPDRFSGSGSGADFTLTISRLEPEDFAVYHCQQYGASAFSFGGGTKLEIK
notes: IgG
B5: ADI-14561 (antibody, V domains shown)
VH: QVQLVQSGAEVKKPGSSVRVTCKASGGTVSDYAITWVRQAPGQGLEWMGGFIPMFGVAKDAEKFQGRVTLTGDKSTNAVYMELSSLTSEDTAVYYCARSKRLPAGLSTSDYYYYYLDVWGKGTTVTVSS
VL: EIVLTQSPGTLSLSPGEGATLSCTASQNVFRTHVAWYQQTPGQAPRLLIYGGSTRATGIPDRFSGSGSGTDFTLIISRLEPEDFAVYYCHHFGTTPWTFGQGTKVEIK
notes: IgG
B6: ADI-14536 (antibody, V domains shown)
VH: QVQLVQSGGGVVQPGRSLRLSCAASGFSFSSYGMHWVRQAPGKGLEWVAAIFYHEIKDYYADSVNGRFSISRDNSKNTLYLEMYSLKVEDTAVYYCARDSGTLTGLPHDAFDIWGQGTTVTVSS
VL: DIQMTQSPSTLSASLGGRVTITCRASQSVTNRLAWYQHKPGKAPNLLIYKASTLEIGVPSRFSGSGSGTEFTLTISSLQPDDFATYYCQQYSSYSWTFGQGTKVEIK
notes: IgG; also called Antibody Number 96
B7: ADI-14547 (antibody, V domains shown)
VH: EVQLLESGPVLVKPTETLTLTCTVSGFSLANPDVAVAWIRQPPGKALEWLAHIFSGDETSYTTSLQNRLTISKDTSKSQVVLIMTKMDPRDTGTYFCARVLTTWHGPDYWGQGTTVTVSS
VL: ETTLTQSPLSLPVTLGQPASISCRSDQSLVYHNGNTYVSWFHQRPGQSPRRLIYKVSIRDSGVPDRFSGSGSGTDFALKISRVEAEDLGVYYCMQGSHWPHTFGQGTKVDIK
notes: IgG; also called Antibody Number 107
B8: ADI-14552 (antibody, V domains shown)
VH: EVQLLESGPELKKPGSSVKVSCKASADTFNGHSIAWVRQAPGQGLEWVGGFIPIFGKAYYAQNFQGTVTISADSSTRTVYMDLFNLRSEDTAVYYCARSRKNVIGDTSAWEHMYFYMDVWGTGTTVTVSS
VL: EIVLTQSPGTLSLSPGERVTLSCRASESINKNTYLAWYQQKPGQAPRLLIYGASSRATGIPDRFSGSGSGTDFTLTISRLEPEDSAVYYCQQYGRSMTFGGGTKVEIK
notes: IgG
B9: ADI-14549 (antibody, V domains shown)
VH: EVQLVESGPALVKPTQTLTLTCTFSGFSLSSRRMCVSWIRQPPGKALEWLARIDWDDDKSYSTSLKTRLTIAKDTSKNQVVLTMTNMGPADTATYYCARTPIYDSSGYYLYYFDSWGQGTLVTVSS
VL: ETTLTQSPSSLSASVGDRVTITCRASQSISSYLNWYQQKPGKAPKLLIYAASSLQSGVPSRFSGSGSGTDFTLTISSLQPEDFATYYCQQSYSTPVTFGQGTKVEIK
notes: IgG
B10: ADI-14560 (antibody, V domains shown)
VH: QVQLVQSGPELKKPGESLKISCKASGYSFTSFWIAWVRQMPGKGLEFLGIIYPGDADTRYSPSFQGQVTISADKSINTAYLQWNNLKASDTAMYYCARQTTMTPDAFDLWGQGTTVTVSS
VL: EIVLTQSPATLSLSPGERATISCRASQSVSSYLAWYQQKPGQAPRLLIYEASDRATGTPARFSGSGSGTDFTLTISSLEPEDFAVYYCQQRSNWGVGTFGQGTKVEIK
notes: IgG; also called Antibody Number 120
B11: ADI-14546 (antibody, V domains shown)
VH: QVQLVQSGAEVKKPGSSVKVSCTASGGSFSTNSIAWLRQTPREGLEWMGGIIPVFGAAKYAQKFQGRVTISADASTTTAYLELHNLRSEDTAVYYCARGISPRTNSDWNHNYFYYYMDVWGKGTTVTVSS
VL: ETTLTQSPGTLSLSPGERATLSCRASQSIFTIYLAWYQQKPGQAPRLLIYSASNRATGIPDRFSGSGSGTDFTLTISSLEPEDFAVYYCHHYGTSPHTFGQGTRLEIK
notes: IgG
B12: ADI-14441 (antibody, V domains shown)
VH: QVQLVQSGAEVKKPGSSVKISCKASGGTFNSQAIHWVRQAPGQDLEWMGNIIPGFGSPNSAQNFQGRVTFIADDSTGAAYMDLSSLKSEDTAVYYCATAGWFGESVHLDSWGQGTLVTVSS
VL: not shown
B13: ADI-14448 (antibody, V domains shown)
VH: EVQLVESGGGLVKPGGSLRLSCAASGSSFRYSYMSWVRQAPGKGLQWVASISPSSTYTDYADSVKGRSTISRDHDKISLQVNSLRGDDTAVYYCVRHMNLVMGPFAFDIWGRGTMVTVSS
VL: QSVVTQPPSLSGAPGQRITISCTGSSSNIGAGYDVNWYQQLPGTAPKLLIYAKTNRPSGVPERFSGSESGTSASLAITGLQPEDEADYYCQSYDRIGMYVFGTGTKLTVL
B14: ADI-14501 (antibody, V domains shown)
VH: QVQLVQSGAEVKKPGSSVKISCKASGGTFKSQAIHWVRQAPGQGLEWMGNIIPTYGSPNFAQRFLGRVTFIADDSTGAASMDLYRLTSEDTAVYYCATAGWFGELVRFDSWGQGTLVTVSS
VL: DIVMTQSPATLSVSPGERATLSCRATESISSNLAWYQQKPGQAPRLLIYGASTRATGIPARFSGSGSGTEFTLTINSLQSEDFAVYYCQQYNNWPPLTFGGGTKVDIK

The first experiment has as its target T1, RSV F protein of subtype A (strain A2) on recombinant mKate-RSV (Respiratory syncytial virus subtype A …, UniProt P03420 26-574). As to the kind of experiment: cell-based or functional assay.
Consider B1, for which the “Neut IC50 (µg/ml) subtype A” value is 0.727 µg/mL.
Same read-out and setting: with B2 the figure was 0.057 µg/mL.
Same read-out and setting: with B3 the figure was 0.736 µg/mL.
The same measure, in the same setting: with B4 the figure was above 10 µg/mL; with B5, above 10 µg/mL; with B6, 0.56 µg/mL.
In the case of B7, the “Neut IC50 (µg/ml) subtype A” value was 0.198 µg/mL.
Same read-out and setting: with B8 the figure was above 10 µg/mL.
Still for that read-out and setting: to B9 belongs above 10 µg/mL; to B10, above 10 µg/mL.
Same read-out and setting: with B11 the figure was above 10 µg/mL.

The next experiment concerns the target RSV F protein of subtype B (18537) on recombinant mKate-RSV (Respiratory syncytial virus subtype B …, UniProt P13843 26-574). As to the kind of experiment: cell-based or functional assay.
Regarding B1, the “Neut IC50 (µg/ml) subtype B” value stood at 0.302 µg/mL.
The same measure, in the same setting: to B2 belongs 0.031 µg/mL; to B3, 0.787 µg/mL; to B4, above 10 µg/mL.
On the same count and under the same terms, with B5 the figure was above 10 µg/mL; with B6, 0.696 µg/mL.
On the same count and under the same terms, to B7 belongs 0.252 µg/mL.
Take B8: the “Neut IC50 (µg/ml) subtype B” value was above 10 µg/mL.
On to B9, for which the “Neut IC50 (µg/ml) subtype B” value was above 10 µg/mL.
As for B10, the “Neut IC50 (µg/ml) subtype B” value was above 10 µg/mL.
On the same count and under the same terms, with B11 the figure was above 10 µg/mL.

The target of another experiment is T1, RSV F protein of subtype A (strain A2) …. As to the kind of experiment: cell-based or functional assay. The source holds these as a separate data set.
With B12, the “RSV-A2 IC50” value was above 25 µg/mL.
Still for that read-out and setting: to B13 belongs 0.04 µg/mL; to B14, 12.4 µg/mL.

The target in the next experiment is human metapneumovirus (HMPV) F protein on GFP-expressing hMPV (NL/1/00, A1 sublineage) (human metapneumovirus). As to the kind of experiment: cell-based or functional assay.
For the molecule B12, the “HMPV-A1 IC50” value amounted to 37.8 µg/mL.
On the same count and under the same terms, with B13 the figure was 0.05 µg/mL; with B14, 31.4 µg/mL.

The target in a further experiment is T2, RSV F ectodomain stabilized in the postfusion conformation (F ΔFP), subtype A (Respiratory syncytial virus subtype A, UniProt P03420 26-109; P03420 147-524).
T2 construct: extracellular domain; trimer; also called Postfusion subtype A; Postfusion RSV F
As to the kind of experiment: BLI, IgG on AHQ sensors, 100 nM antigen. (In general: In BLI a coated tip is dipped into the sample, and binding shifts an interference pattern.)
Usually Kd stands for a measure of binding affinity in units of concentration. Low values mean higher affinity, high ones lower affinity. As for B1, the Kd was found to be 0.738 nM. This counts as sub-nanomolar.
On the same count and under the same terms, with B2 the figure was 0.204 nM; with B3, 0.388 nM; with B4, 67.1 nM.
Turning to B5, binding was put at a Kd of 3.09 nM. This Kd lies about 22-fold lower than the previous one.
The same measure, in the same setting: to B6 belongs 0.404 nM.
On the same count and under the same terms, to B7 belongs 0.169 nM; to B8, 1.27 nM; to B9, 0.326 nM.
Same read-out and setting: with B10 the figure was 0.874 nM; with B11, 0.589 nM.

A further experiment has as its target T3, RSV F ectodomain stabilized in the postfusion conformation (F ΔFP), subtype B (Respiratory syncytial virus subtype B, UniProt P13843 26-109; P13843 147-524).
T3 construct: extracellular domain; trimer; also called Postfusion subtype B
Kind of experiment: BLI, IgG on AHQ sensors, 100 nM antigen.
B1 returned a Kd of 5.71 nM.
Same read-out and setting: to B2 belongs 0.129 nM; to B3, 0.197 nM; to B4, 117 nM.
The same measure, in the same setting: to B5 belongs 2.28 nM; to B6, 0.382 nM; to B7, 0.269 nM.
The same measure, in the same setting: with B8 the figure was 1.11 nM; with B9, 2.49 nM.
Turning to B10, the Kd worked out at 0.329 nM.
Same read-out and setting: with B11 the figure was 0.472 nM.
